This is an account of results in patent US5811533, “High-affinity oligonucleotide ligands to vascular endothelial growth factor (VEGF)” (NeXstar Pharmaceuticals, Inc.).

The target of series [1] is T1, VEGF165 (recombinant human vascular endothelial growth factor, 165 aa form) (Homo sapiens, UniProt P15692-4 P15692-4:27-191). The series is described as follows: filter; PBS, 0.01% HSA, 37 C; monophasic. Particulars: tags: gift from N. Ferrara, Genentech; chain copies: 2 (dimer, stated); label: 32P; bulged hairpin. As to the method:
(§1) Internally-labeled RNA ligands used for binding studies were prepared by in vitro transcription using T7 RNA polymerase (Milligan et al. (1987) Nucl. Acids Res. 15:8783) and were purified on denaturing polyacrylamide gels to ensure size homogeneity. All RNA ligands were diluted to about 1 nM in PBS, denatured at 90° C. for 2 minutes, and then cooled on ice prior to incubation with the protein. This denaturation/renaturation cycle performed at high dilution is necessary to ensure that the RNA is essentially free from dimers and other higher order aggregates. Concentrations of the stock solutions of VEGF, from which other dilutions were made, were determined from the absorbance reading at 280 nm using the calculated value for ε280 of 46,600 M^-1cm^-1 for the VEGF dimer (Gill et al. (1989) Anal. Biochem. 182:319). Data sets that define the binding curves were fit to either eq. 2 or eq. 5 by the non-linear least squares method using the software package Kaleidagraph (Synergy Software, Reading, Pa.). […]

In series [2] the target is T1, VEGF165 (recombinant human vascular …). Briefly: filter; PBS, 0.01% HSA, 37 C; Kd1, X1 0.70, Kd2 38 nM. Particulars: tags: gift from N. Ferrara, Genentech; chain copies: 2 (dimer, stated); label: 32P. As to the method:
as §1

For series [3] the target is unchanged. The series is described as follows: filter. The settings on record: tags: gift from N. Ferrara, Genentech; chain copies: 2 (dimer, stated).
For series [4] the target is unchanged. The series is described as follows: inhibition; VEGF receptor binding. Particulars: tags: gift from N. Ferrara, Genentech; chain copies: 2 (dimer, stated).
Series [5] has the same target. Briefly: inhibition; VEGF receptor binding; single value printed in Ki column. The settings on record: tags: gift from N. Ferrara, Genentech; chain copies: 2 (dimer, stated).
Series [6] shares this target. The series is described as follows: filter; PBS, 0.01% HSA, 37 C; Kd1, X1 0.53, Kd2 31 nM. The settings on record: tags: gift from N. Ferrara, Genentech; chain copies: 2 (dimer, stated); label: 32P; asymmetrical internal loop. As to the method: as §1
The target is the same in series [7]. Briefly: filter; PBS, 0.01% HSA, 37 C; Kd1, X1 0.82, Kd2 42 nM. Particulars: tags: gift from N. Ferrara, Genentech; chain copies: 2 (dimer, stated); label: 32P. The method, then:
as §1

For series [8] the target is unchanged. The series is described as follows: filter; monophasic. The settings on record: tags: gift from N. Ferrara, Genentech; chain copies: 2 (dimer, stated).
The target is the same in series [9]. The series is described as follows: filter; PBS, 0.01% HSA, 37 C; Kd1, X1 0.19, Kd2 10 nM. Particulars: tags: gift from N. Ferrara, Genentech; chain copies: 2 (dimer, stated); label: 32P. As to the method:
as §1

Series [10] shares this target. The series is described as follows: filter; Kd1, X1 0.54, Kd2 9 nM. Particulars: tags: gift from N. Ferrara, Genentech; chain copies: 2 (dimer, stated).
For series [11] the target is unchanged. Briefly: filter; PBS, 0.01% HSA, 37 C; Kd1, X1 0.40, Kd2 11 nM. Particulars: tags: gift from N. Ferrara, Genentech; chain copies: 2 (dimer, stated); label: 32P. The method, then:
as §1

T1 sequence (P15692 other isoform, or with tags, fused parts or gaps): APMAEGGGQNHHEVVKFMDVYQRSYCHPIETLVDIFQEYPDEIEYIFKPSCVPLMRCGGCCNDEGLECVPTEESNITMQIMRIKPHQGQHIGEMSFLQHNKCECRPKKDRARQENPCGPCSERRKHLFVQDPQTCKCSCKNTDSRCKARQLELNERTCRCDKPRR

B1: ligand 40t (ssRNA)
RNA: GGUCAACGGUUGAGUCUGUCCCGUUCGAC
Turning to B1, the Kd (commonly the free concentration of one partner at which half of the binding sites on the other are occupied at equilibrium, for simple one-to-one binding) in [1] is 20 nM.

B2: ligand 44 (ssRNA)
RNA: GGGAGCUCAGAAUAAACGCUCAAGCUUGAUGGGUGACACACGUCAUGCCGAGCUUCGACAUGAGGCCCGGAUCCGGC
In the case of B2, the Kd in [2] is 1.7 nM.

B3: 33t (ssDNA)
DNA: CCCGTCTTCCAGACAAGAGTGCAGGG
Turning to B3, in series [3], the Kd was 0.7 nM. Moreover, the Ki (commonly the dissociation constant of the complex between target and ligand, obtained from inhibition or displacement) in series [4] is 3 nM.

B4: NX-107 (ssRNA)
RNA: ACCCUGAUGGUAGACGCCGGGGUG
modifications: 2'-NH2 pyrimidines
In the case of B4, in [5], the Ki worked out at 1 nM.

B5: ligand 84t (ssRNA)
RNA: GGCUCAAUAGUUGGAGGCCUGUCCUCGCCGUAGAGC
Regarding B5, the Kd in series [6] is 1.8 nM.

B6: ligand 100 (ssRNA)
RNA: GGGAGCUCAGAAUAAACGCUCAACCGGUAGUCGCAUGGCCCAUCGCGCCCGGUUCGACAUGAGGCCCGGAUCCGGC
In the case of B6, the Kd in series [7] amounted to 0.2 nM.

B7: 23A (ssRNA)
RNA: GGGAGACAAGAAUAACGCUCAAGAGGCUGAUGGCAGACGCGGCCGAAGACAUUCGACAGGAGGCUCACAACAGGC
modifications: 2'-NH2 pyrimidines
B7: the Kd in series [8] is 2.8 nM.

B8: ligand 40 (ssRNA)
RNA: GGGAGCUCAGAAUAAACGCUCAAGACCCAUCGUCAACGGUUGAGUCUGUCCCGUUCGACAUGAGGCCCGGAUCCGGC
As to B8, the dissociation constant (Kd) in [9] worked out at 0.19 nM.

B9: 44B (ssRNA)
RNA: GGGAGGACGAUGCGGAACCGAGUCGUGUGGGUUGGGGCUCCAGUACAUCCCCGGUCUGGGUGUCAGACGACUCGCCCGA
modifications: 2'-NH2 pyrimidines
In the case of B9, the Kd in series [10] was 0.14 nM.

B10: ligand 126 (ssRNA)
RNA: GGGAGCUCAGAAUAAACGCUCAAACGGUUCUGUGUGUGGACUAGCCGCGGCCGUUCGACAUGAGGCCCGGAUCCGGC
On to B10, for which the Kd in series [11] worked out at 0.14 nM.
